The subject of data set [1] is COS-7 cells. As to the kind of experiment: Luminescence stability of ALucs after substrate injection (Example 1-3). The class given is cell-based, African green monkey. The following applies: Promega lysis and reaction solution. As for the experimental part:
The luminescence stability of the artificial luciferases (ALucs) of the present invention was examined in various respects (FIG. 3). COS-7 cells containing each luciferase gene were cultured for 9 hours, and treated with a cell lysis solution produced by Promega for 20 minutes. Temporal changes in luciferase luminescence intensity after the introduction of a substrate-containing reaction solution produced by Promega were observed every five minutes (FIG. 3A).
This experiment was expanded to artificial luciferases ALuc16 to ALuc25 (FIG. 3BC).

A short description of data set [2]: Prolonged activity stability of ALucs secreted in medium (Example 1-19). The format is physicochemical. The following applies: Day 0 to Day 25. As for the experimental part: The prolonged activity stability of the artificial luciferases (ALucs) developed in the present invention was examined. First, a plasmid expressing each artificial luciferase (ALuc16, ALuc22, ALuc23, ALuc24, ALuc25, and ALuc30) (in the figure, each is referred to as A16, A22, A23, A24, A25, and A30) was introduced into COS-7 cells, and then culturing was continued for 24 hours. By the culturing, each artificial luciferase was secreted into the medium. The artificial luciferase secreted in the medium was collected, and a difference in enzymatic activity was measured under the same conditions in the following manner. On the first day (Day 0), 50 μL of assay solution (containing native coelenterazine, produced by Promega) was added to 5 μL of each medium, and the luminescence value (enzymatic activity) was measured using an LAS-4000 (produced by FujiFilm). In the same manner, the luminescence value on Day 8, Day 16, and Day 25 was compared with the luminescence value on Day 0 (FIG. 19 (A)).

Data set [3] in a line: Temporal change in luminescence after substrate injection, medium 25 days after expression (Example 1-19). The format is biochemical. The following applies: for temporal change of luminescence after substrate injection: medium 25 days after expression. The procedure:
50 μL of an assay solution (containing native coelenterazine, produced by Promega) was added to 5 μL of each medium 25 days after the expression, and the luminescence value (enzymatic activity) was measured using an LAS-4000 (produced by FujiFilm).

The test system of data set [4] is COS-7 cells. As to the kind of experiment: Enzymatic activity confirmation of ALuc (section 3-1, 3-2). The class given is cell-based, African monkey. The settings on record: vs conventional copepod luciferases. As for the experimental part: First, using a known lipid reagent for gene introduction, an expression vector encoding ALuc is introduced into African monkey-derived COS-7 cells; as a control, an expression vector having a known GLuc without any mutation into the cells is also introduced in the same manner. At a predetermined time (from 10 to 20 hours, for example, 16 hours) after the introduction of the vector, a cell lysate is prepared using a known lysis reagent.
Thereafter, the cell lysate is mixed with a known substrate solution containing coelenterazine, and its color intensity, temporal stability in luminescence, etc., are measured.
The luminescence intensity may be found by measuring the intensity at a specific wavelength using a known luminescence spectrophotometer after addition of a known substrate. By performing the measurement every minute, the temporal stability in luminescence can be evaluated. To measure a shift to a longer wavelength, scanning of the entire wavelength is necessary.

For data set [5], the system named is COS-7 cells. As to the kind of experiment: Comparison of luminescence intensity of ALucs (Example 1-2). The class given is cell-based, African green monkey. The settings on record: COS-7 cultured overnight, Promega assay solution, LAS-4000. An excerpt:
The artificial luciferase (ALuc) genes synthesized by the above process were subcloned into mammalian cell expression vectors (pcDNA3.1 (+)). Each expression vector was transfected with African green monkey kidney-derived COS-7 cells, and the luminescence intensity, luminescence stability, and red-shifted degree of artificial luciferases (ALucs) were compared (FIGS. 2 to 5).
First, the luminescence intensity of artificial luciferases (ALucs) was compared (FIG. 2). For the comparison, COS-7 cells containing a vector encoding each luciferase were cultured overnight, and then the relative luminescence intensity was measured by using an assay solution, which is a mixture of a cell lysis solution and a substrate, produced by Promega, and a luminescence image analyzer (LAS-4000).

Data set [6] is described as follows: Heat resistance of ALucs in lysate (Example 1-4). The format is physicochemical. The following applies: for change of luminescence intensity by heating: 80° C. for 10 minutes. As for the experimental part:
The heat resistance and degree of extracellular secretion of artificial luciferases of the present invention were measured (FIG. 4). First, to measure heat resistance, COS-7 cells containing each luciferase were lysed in cell lysis solutions produced by Promega to prepare lysates. Subsequently, same samples were allowed to stand at room temperature or heated at 80° C. for 10 minutes, and changes in luminescence intensity were compared by using a (substrate-containing) reaction solution produced by Promega.

Data set [7] relates to COS-7 cells. As to the kind of experiment: Degree of extracellular secretion of ALucs (Example 1-4). The format is cell-based, African green monkey. The following applies: luminescence intensity of the medium, overnight culture. The procedure:
Further, each luciferase (ALuc) was introduced into COS-7 cells, culturing was performed overnight, and then the amount of each luciferase (ALuc) secreted from the cells was measured based on the luminescence intensity of the medium (FIG. 4B).

For data set [8], the system named is COS-7 cells. As to the kind of experiment: Luminescence of ALuc25 to ALuc32 in lysate and medium (Example 1-18). The class given is cell-based. The following applies: 20 hours after plasmid introduction. As for the experimental part:
After the insertion of a gene encoding an enzyme sequence as mentioned above into a mammalian expression vector (pcDNA3.1 (+)), each plasmid was introduced into COS-7 cells. By the transformation of these cells, each luciferase was expressed, and some of the luciferase was secreted out of the cells and some of the luciferase retained in the cells. 20 hours after the plasmid introduction, media of the cells were sampled, and the remaining cells were lysed with a lysis buffer (lysate preparation). Immediately after 50 μL of assay solution (containing a substrate) was simultaneously added to each prepared medium (5 μL) or lysate (5 μL), the luminescence value was measured using a luminescence analyzer (LAS-4000; FujiFilm) (n=3) (FIG. 18).

Data set [9] relates to COS-7 cells. As to the kind of experiment: Luminescence characteristics of tag-containing ALucs (Example 1-22). The format is cell-based. The following applies: medium two days after gene transfer. The procedure: To compare the relative luminescence intensity of these luciferases, the following experiment was conducted. First, a gene encoding each luciferase was subcloned into pcDNA3.1 (+), which is a eukaryotic expression vector, and each vector was introduced into COS-7 cells. Two days after gene transfer, the relative luminescence intensity of luciferase secreted into each medium was compared using a luminescence reagent produced by Promega.

“Also recorded” adds a separate entry of the source.

B1: ALuc24: artificial luciferase, SEQ ID NO: 27 (protein)
chain: MMGIKVLFALICFALVQANPTENKDDIDIVGVEGKFGTTDLETDLFTIVEDMNVISRDTDVDANRADRGRRGKLPGKKLPLEVLKELEANAQKAGCTRGCLICLSHIKCTAKMKKWLPGRCESWEGDKETGQGGIGEAIVDIPEIPGFKNMAPMEQFIAQVDLCADCTTGCLKGLANVKCSNLLKKWLPSRCKGFANKIQAEVDTIKGLGGS
modifications: Synthetic ALuc24
Regarding B1, in data set [1], the “luminescence intensity (initial)” value was “slightly low in luminescence intensity; also recorded: relatively low luminescence intensity” and the “luminescence stability / sustainability after substrate injection” value was “excellent in luminescence stability; also recorded: extremely higher luminescence sustainability than other artificial luciferases”. The “prolonged enzymatic activity stability” value in data set [2] is reported as “maintained stable enzymatic activity until Day 25”. For the same molecule, in data set [3], the “temporal change of luminescence after substrate injection” value was “abrupt increase in luminescence value after 6 minutes”. Also, the “luminescence stability (general statement)” value in [4] is given as “remarkably stable luminescence signals”.

B2: ALuc23: artificial luciferase, SEQ ID NO: 16 (protein)
chain: MMGIKVLFALICFALVQANPTENKDDIDIVGVEGKFGTTDLETDLFTIVEDMNVISRDTDVDANRADRGRRGKLPGKKLPLEVLKELEANAQKAGCTRGCLICLSHIKCTAKMKKWLPGRCESWEGDKETGQGGIGEAIVDIPEIPGFKELAPMEQFIAQVDLCADCTTGCLKGLANVKCSALLKKWLPSRCAGFADKIQAQVDTIKGAGGS
modifications: Synthetic ALuc23
For B2, the “luminescence intensity higher than that of conventional GLuc, Renilla luciferase and MpLuc4” value (“luminescence intensity higher than that” below) in data set [5] is given as “about 50 folds”. Also, in [1], the “luminescence intensity (initial)” value is recorded as “advantageous initial luminescence intensity”. Moreover, the “change of luminescence intensity by heating” value (shortened to “change … by heating”) in data set [6] is given as “a remarkable reduction in luminescence intensity that may be due to heating was not observed”. The extracellular secretion entry in [7] is “relatively high extracellular secretion”. Further, in data set [3] (after long-term conservation (25 days)), the “time of maximum luminescence value after infusion of coelenterazine” value came to 12 min. For the same molecule, the “temporal change of luminescence after substrate injection” value in data set [3] is “several times higher”. Also, the “luminescence stability (general statement)” value in data set [4] is on record as “remarkably stable luminescence signals”.

B3: ALuc22: artificial luciferase, SEQ ID NO: 15 (protein)
chain: MMGVKLIFAVLCVAVAQANATINENFEDIDLVAIGGSFADLETDLFTIVEDMNVISRDTDVDANRGGRGRRGKLPGKKLPLEVLKELEANAQKAGCTRGCLICLSHIKCTAKMKKWLPGRCESWEGDKETGQGGIGEAIVDIPEIPGFKDLEPMEQFIAQVDLCVDCTTGCLKGLANVKCSDLLKKWLPSRCATFASKIQAQVDKIKGAGGS
modifications: Synthetic ALuc22
As for B3, the “luminescence intensity higher than that” value in data set [5] is given as “about 50 folds”. In data set [1], the “luminescence intensity (initial)” value is on record as “advantageous initial luminescence intensity” and the “luminescence stability / sustainability after substrate injection” value is “decreased to about half of the original luminescence intensity after 6 minutes”. Also, the “change … by heating” value in [6] is given as “significantly decreased”. The “reduction of luminescence intensity by heating” value in data set [6] (80° C. for 10 minutes vs room temperature) is “about 40%”. The extracellular secretion entry in [7] is given as “low extracellular secretion”. Besides, the “prolonged enzymatic activity stability” value in data set [2] is “significant decrease in enzymatic activity”. Besides, the “luminescence stability (general statement)” value in [4] is listed as “remarkably stable luminescence signals”.

B4: ALuc25: artificial luciferase, SEQ ID NO: 17 (protein)
chain: MMGVKLIFAVLCVAVAQANATINENFEDIDLVAIGGSFADLETDLFTIVEDMNVISRDTDVDANRGGRGRRGKLPGKKLPLEVLKELEANAQKAGCTRGCLICLSHIKCTAKMKKWLPGRCESWEGDKETGQGGIGEAIVDIPEIPGFKELAPMEQFIAQVDLCADCTTGCLKGLANVKCSALLKKWLPSRCAGFADKIQAQVDTIKGAGGS
modifications: Synthetic ALuc25
With B4, the “luminescence intensity higher than that” value in data set [5] was “about 50 folds”. Also, the “luminescence intensity (initial)” value in [1] was “advantageous initial luminescence intensity”. Moreover, the “change … by heating” value in [6] is listed as “a remarkable reduction in luminescence intensity that may be due to heating was not observed”. Further, the extracellular secretion entry in data set [7] is on record as “low extracellular secretion”. Also, the “luminescence value from lysate” value in [8] was “extremely higher than those of conventional GLuc and MpLuc4”. Also, the “prolonged enzymatic activity stability” value in data set [2] is recorded as “maintained stable enzymatic activity until Day 25”. In addition, the “luminescence stability (general statement)” value in data set [4] was “remarkably stable luminescence signals”.

B5: ALuc31: artificial luciferase containing a His tag, SEQ ID NO: 33 (protein)
chain: MMGIKVLFALICFALVQANHHHHHHHHDIVGVEGKFGTTDLETDLFTIVEDMNVISRDTDVDANRADRGRRGELPGKKLPLEVLKELEANAQKAGCTRGCLICLSHIKCTAKMKKWLPGRCESWEGDKETGQGGIGEAIVDIPEIPGFKELAPMEQFIAQVDLCADCTTGCLKGLANVKCSALLKKWLPSRCAGFADKIQAQVDTIKGAGGS
modifications: His tag; Synthetic ALuc31
Consider B5, for which, in data set [8], the “luminescence from cell medium” value is listed as “strong bioluminescence”; the “luminescence value from lysate” value is “extremely higher than those of conventional GLuc and MpLuc4”. Besides, the “luminescence stability (general statement)” value in [4] was “remarkably stable luminescence signals”.

B6: ALuc32: artificial luciferase containing a c-Myc-tag, SEQ ID NO: 34 (protein)
chain: MMGIKVLFALICFALVQANEQKLISEEDLVGVEGKFGTTDLETDLFTIVEDMNVISRDTDVDANRADRGRRGKLPGKKLPLEVLKELEANAQKAGCTRGCLICLSHIKCTAKMKKWLPGRCESWEGDKETGQGGIGEAIVDIPEIPGFKELAPMEQFIAQVDLCADCTTGCLKGLANVKCSALLKKWLPSRCAGFADKIQAQVDTIKGAGGS
modifications: c-Myc tag; Synthetic ALuc32
Regarding B6, the relative luminescence intensity result in [9] is given as “relatively poor luminescence intensity”. Besides, the “luminescence stability (general statement)” value in data set [4] is on record as “remarkably stable luminescence signals”.

For the origin of these results see US10533231B2, “Artificial bioluminescent enzyme” (NATIONAL INSTITUTE OF ADVANCED INDUSTRIAL SCIENCE AND …, priority 2012, dated 2020).
